B1: CPEB3 Ribozyme (parent)
chain: GGGGGCCACAGCAGAAGCGUUCACGUCGCGGCCCCUGUCAGAUUCUGGUGAAUCUGCGAAUUCUGCUGU

The series covers variants of B1. Briefly: self-cleavage, relative activity (ratio to wild type); higher = more cleavage; co-transcriptional.
Regarding G11U C34U, the self-cleavage is 0.915.
As for G11U C34G, the figure is 0.635; as for G11A G31U, 0.599.
As for G11A G31C, the figure is 0.155; as for G11C G19C, 0.145.
As for G11C C27A, the figure is 0.177; as for G11C C27U, 0.0897.
Turning to G11A U46A, the self-cleavage was 0.932.
Next, G11A U46G: 0.93; G11A U46C: 0.91; G11A G56U: 0.475.
With G11A G56A, the self-cleavage was 0.708.
As for G11C C45A, the figure is 0.757; as for G11C C45U, 0.804; as for G11C U43C, 0.571.
As for G11C U43A, the figure is 0.357; as for G11C G14U, 0.172; as for G11C G14A, 0.0859.
As for G11C G14C, the figure is 0.0758.
As to G11A A13U, the self-cleavage is 0.186.
As for G11U C22G, the figure is 0.112; as for G11U C22A, 0.129; as for G11U C22U, 0.179.
Next, A10U U64C: 0.778; G11A A60G: 0.434.
Next, G11A A60U: 0.323; A10U U49G: 1.01; A10U U49C: 1.
Take A10U U49A: the self-cleavage was 0.989.
As for G11C C18U, the figure is 0.246; as for G11C C18A, 0.0969; as for G11C G47A, 0.907.
Next, G11C G47C: 0.896; G11C G47U: 0.916; G11C U67C: 0.92.
Next, G11C U67A: 0.897.
On to G11C U67G, for which the self-cleavage stood at 0.93.
Next, G11A A42U: 0.548; G11A A42C: 0.544; G11A A42G: 0.586.
Next, A10U U26C: 0.986; A10U U26A: 0.917.
Next, G11C G28C: 0.137; G11C G28A: 0.0877; G11C G28U: 0.137.
On to A10U U69A, for which the self-cleavage was 1.02.
Next, G11A G19U: 0.088; G11A G19C: 0.133.
As for G11U A59G, the figure is 0.901; as for G11U C27U, 0.148.
As for G11U C27G, the figure is 0.134.
On to G11U C27A, for which the self-cleavage came out at 0.16.
Next, A10U U67C: 1; G11A C34U: 0.93.
In the case of G11C G25A, the self-cleavage was found to be 0.149.
As for G11C G25C, the figure is 0.177; as for G11U A51U, 0.785; as for G11U A51G, 0.921.
Next, G11A A15U: 0.574.
Consider G11A A15G, for which the self-cleavage turned out to be 0.807.
Next, G11A C12A: 0.74.
In the case of G11A C12G, the self-cleavage is 0.788.
On to A10U G50C, for which the self-cleavage came to 1.
Consider A10U G50A, for which the self-cleavage was determined as 0.978.
As for G11A G25U, the figure is 0.176.
As for G11A G25C, the figure is 0.103; as for G11C G56A, 0.564.
As for G11C G56U, the figure is 0.359; as for G11A G37C, 0.196.
In the case of G11A G37A, the self-cleavage came out at 0.188.
As for A10U G47U, the figure is 0.962.
As for A10U G47C, the figure is 0.991; as for A10U G47A, 1.03.
Next, G11U C24G: 0.177; G11U C24U: 0.422.
For the variant G11U A42C, the self-cleavage stood at 0.342.
Next, G11U A42G: 0.476; G11A A23C: 0.775; G11A A23G: 0.792.
Next, G11A A23U: 0.855.
As for G11C G48A, the figure is 0.921; as for G11C G48C, 0.963.
Take G11A G47U: the self-cleavage came out at 0.937.
As for G11A G47C, the figure is 0.895; as for G11A G47A, 0.942.
As for G11A U64C, the figure is 0.513.
Next, G11A U64A: 0.655; G11A U64G: 0.661; G11C U61G: 0.383.
G11C U61A: the self-cleavage was 0.424.
As for G11C G30A, the figure is 0.522; as for G11C G30C, 0.435.
As for G11A A16C, the figure is 0.0873.
As for G11A A16G, the figure is 0.575.
Consider G11A A16U, for which the self-cleavage amounted to 0.352.
As for G11A C32A, the figure is 0.816; as for G11A C32G, 0.293; as for G11A U21C, 0.633.
As for G11A U21A, the figure is 0.875.
Next, G11C U36C: 0.62.
With G11C U36A, the self-cleavage was found to be 0.0623.
Next, G11C U36G: 0.18; G11A G41C: 0.278.
For G11A G41U, the self-cleavage is 0.342.
As for G11A G41A, the figure is 0.276; as for A10U U36A, 0.291.
With G11A U49G, the self-cleavage worked out at 0.965.
As for G11A U49A, the figure is 0.926; as for G11C G37C, 0.103.
As for G11C G37A, the figure is 0.217.
Next, G11C U49A: 0.882; G11A U53C: 0.352.
With G11A U53G, the self-cleavage was determined as 0.622.
As for A10U G58C, the figure is 1.02; as for A10U G58U, 0.984; as for A10U U38G, 0.154.
For A10U U38A, the self-cleavage is 0.959.
As for A10U U38C, the figure is 0.99; as for A10U U21A, 1; as for A10U U21C, 0.912.
Next, A10U U21G: 0.581.
Next, G11C G17U: 0.144; G11C G17C: 0.143; G11C A23U: 0.798.
Turning to G11A U26A, the self-cleavage stood at 0.676.
Next, G11U A40C: 0.213; G11U A40G: 0.668.
For G11A G14C, the self-cleavage worked out at 0.267.
As for G11A G14A, the figure is 0.119.
As for G11U C12U, the figure is 0.44; as for G11U C12G, 0.577; as for G11U C12A, 0.549.
Next, G11A G58A: 0.842; G11A G58U: 0.905; G11A G58C: 0.876.
For G11A C63A, the self-cleavage came out at 0.75.
As for G11A C63G, the figure is 0.493; as for G11U C63U, 0.498.
Take G11U C63G: the self-cleavage is 0.231.
As for G11C C66A, the figure is 0.844; as for A10U U46G, 1.01; as for G11U C35U, 0.815.
Next, G11U C35G: 0.341.
As for G11C C12A, the figure is 0.653; as for G11C G50U, 0.867; as for G11C G50A, 0.826.
Turning to A10U U55A, the self-cleavage was found to be 0.888.
As for A10U U55G, the figure is 0.888; as for G11A G30A, 0.663; as for G11A G30C, 0.672.
Next, G11A G30U: 0.32.
Next, G11C U64C: 0.424; G11C U64A: 0.385; G11C G41A: 0.209.
Consider G11A A59U, for which the self-cleavage was 0.41.
Consider G11C U53A, for which the self-cleavage came to 0.381.
Next, G11C U53C: 0.28; G11A U67G: 0.98; G11A U67C: 0.996.
Next, G11C U21C: 0.431.
Next, G11C U21G: 0.199; G11C C54G: 0.261; G11C C54U: 0.618.
For the variant G11U A15U, the self-cleavage is 0.295.
Consider G11C U62G, for which the self-cleavage came to 0.251.
As for G11C U62C, the figure is 0.402; as for G11C U62A, 0.409.
